Test results as given in patent publication US20250057776A1.

Molecular target: human integrin β5 (human) (UniProt P18084)
Assay: cell-based or functional assay

Sequence of UniProt P18084 (P18084 24-799 limits assumed): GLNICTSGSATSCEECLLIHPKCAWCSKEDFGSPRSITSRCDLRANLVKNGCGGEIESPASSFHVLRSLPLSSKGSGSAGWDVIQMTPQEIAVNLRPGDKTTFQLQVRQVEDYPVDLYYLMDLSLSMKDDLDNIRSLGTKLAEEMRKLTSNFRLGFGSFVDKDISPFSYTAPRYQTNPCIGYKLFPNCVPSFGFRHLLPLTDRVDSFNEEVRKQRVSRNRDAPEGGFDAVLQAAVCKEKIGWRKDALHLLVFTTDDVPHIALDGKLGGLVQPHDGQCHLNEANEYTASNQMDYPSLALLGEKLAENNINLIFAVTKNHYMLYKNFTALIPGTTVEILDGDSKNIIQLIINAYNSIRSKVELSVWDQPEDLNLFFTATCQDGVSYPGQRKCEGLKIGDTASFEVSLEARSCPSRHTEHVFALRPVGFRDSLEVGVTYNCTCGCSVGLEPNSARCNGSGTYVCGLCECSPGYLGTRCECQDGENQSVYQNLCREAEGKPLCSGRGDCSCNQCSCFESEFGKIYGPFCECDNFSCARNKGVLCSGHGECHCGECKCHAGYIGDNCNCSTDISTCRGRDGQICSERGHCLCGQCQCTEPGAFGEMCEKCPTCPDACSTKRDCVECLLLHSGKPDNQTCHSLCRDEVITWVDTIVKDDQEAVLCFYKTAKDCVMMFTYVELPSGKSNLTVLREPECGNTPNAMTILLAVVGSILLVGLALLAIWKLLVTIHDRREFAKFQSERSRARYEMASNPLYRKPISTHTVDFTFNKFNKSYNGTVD

Brightness (integration, A.U.) of plate of HPF cells after exosome introduction; integrin β5-introduced exosome + anti-integrin β5 antibodies (6.1 × 10^6 without antibodies): 5.1e+06 A.U.
Substance: anti-integrin β5 antibodies (model number D24A5, rabbit monoclonal antibodies #3629, commercially available from Cell Signaling Technology) (antibody)
